Results on 19 molecules are retold here after US6949349.

Positions of bridges follow the written chain, without caps; N, C: chain ends. No end group written: not given here.

Assay [1] concerns the target T1, IGFBP-1 (human, UniProt P08833 26-259).
T1 construct: Biotinylated in the ELISA assays; also called rhIGFBP-1
T1 sequence (looked up): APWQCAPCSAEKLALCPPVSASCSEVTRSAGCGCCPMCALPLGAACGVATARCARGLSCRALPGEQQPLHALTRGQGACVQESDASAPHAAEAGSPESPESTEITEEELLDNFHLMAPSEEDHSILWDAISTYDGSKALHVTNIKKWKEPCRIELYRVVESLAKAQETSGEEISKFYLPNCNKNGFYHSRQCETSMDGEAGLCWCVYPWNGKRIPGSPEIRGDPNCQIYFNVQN
Description: BIAcore competition: peptide inhibits IGFBP-1 binding to IGF-I; ratio against bp1-14.

Assay [2] has as its target T1, IGFBP-1. The experiment in a line: BIAcore competition: peptide inhibits IGFBP-1 binding to IGF-I; ratio against bp1-16. (In general: SPR reads the build-up and loss of mass on a sensor chip optically.)
The target in assay [3] is T1, IGFBP-1. Description: ELISA plate assay (starred peptide): peptide inhibits IGFBP-1 binding to IGF-I; ratio against bp1-16.
For assay [4], the target named is T1, IGFBP-1. Description: ELISA plate assay (starred peptide): peptide inhibits IGFBP-1 binding to IGF-I; ratio against bp1-14.
The target in the next assay is T2, IGFBP-3 (human, UniProt P17936 28-291).
T2 construct: also called rhIGFBP-3
T2 sequence (P17936 28-291 limits assumed): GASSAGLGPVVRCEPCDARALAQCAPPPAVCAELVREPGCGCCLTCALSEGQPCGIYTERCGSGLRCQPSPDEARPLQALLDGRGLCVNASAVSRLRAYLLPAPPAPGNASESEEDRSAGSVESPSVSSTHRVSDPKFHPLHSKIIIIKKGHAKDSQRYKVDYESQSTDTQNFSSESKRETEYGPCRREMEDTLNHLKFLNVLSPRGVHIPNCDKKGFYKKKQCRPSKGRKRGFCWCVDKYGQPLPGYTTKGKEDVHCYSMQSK
Description: BIAcore competition: peptide inhibits IGFBP-3 binding to IGF-I; the reference itself.

Assay [5] deals with T3, recombinant human IGFBP-3 (human, UniProt P17936 28-291).
T3 construct: also called rhIGFBP-3
T3 sequence (P17936 28-291 limits assumed): as above
Description: phage ELISA on IGFBP-3 plate, 50-fold phage dilution, with/without 100 nM IGF-I as competitor (FIG. 29). The method, then: (§1) The plates were then washed ten times, as above, and a solution of rabbit anti-phage antibody mixed with a goat-anti-rabbit conjugate of horse radish peroxidase was added. After an incubation of 1 hour at room temperature, the plates were developed with a chromogenic substrate, o-phenylenediamine (Sigma). The reaction was stopped with addition of ½ volume of 2.5 M H_2SO_4. Optical density at 490 nm was measured on a spectrophotometric plate reader.
In each case, the phagemid clone was grown from a single colony overnight at 37° C. in a culture volume of 5 ml. The phage particles were precipitated and resuspended in 0.5 ml of PBS buffer.
Background: ELISA stands for enzyme-linked immunosorbent assay.

Assay [6] has as its target T1, IGFBP-1. The experiment in a line: BIAcore competition: peptide inhibits IGFBP-1 binding to IGF-I; the reference bp1-16 itself.
In assay [7] the target is T1, IGFBP-1. The experiment in a line: BIAcore competition (starred): peptide inhibits IGFBP-1 binding to IGF-I; ratio to bp1-01 (wt).
For assay [8], the target named is T3, recombinant human IGFBP-3. Description: cell-based or functional assay.
Assay [9] has as its target T4, recombinant human IGFBP-1 (human, UniProt P08833 26-259).
T4 construct: Biotinylated in some assays; also called rhIGFBP-1
T4 sequence (looked up): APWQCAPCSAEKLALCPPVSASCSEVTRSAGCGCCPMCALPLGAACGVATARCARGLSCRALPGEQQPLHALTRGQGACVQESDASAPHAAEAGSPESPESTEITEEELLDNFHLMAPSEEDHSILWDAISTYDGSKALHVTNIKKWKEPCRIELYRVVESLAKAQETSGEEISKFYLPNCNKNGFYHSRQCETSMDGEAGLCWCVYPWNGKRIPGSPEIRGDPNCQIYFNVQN
The experiment in a line: phage ELISA titration on IGFBP-1 plate with IGF-I (FIG. 28). The procedure: as §1

For assay [10], the target named is T1, IGFBP-1. The experiment in a line: ELISA competition: peptide inhibits IGFBP-1 binding to IGF-I; ratio to bp1-01 (wt).
In assay [11] the target is T4, recombinant human IGFBP-1. The experiment in a line: ELISA: peptide dilutions with 20 nM biotinylated IGFBP-1 on IGF-I coated plate. The source says: (§2) The peptide/IGFBP mix was then removed and the plate was washed ten times with PBS buffer containing 0.05% TWEEN-20™ surfactant.
Assay [12] has as its target T4, recombinant human IGFBP-1. The experiment in a line: cell-based or functional assay.
For assay [13], the target named is T3, recombinant human IGFBP-3. Description: BIAcore competition: peptide dilutions with 20 nM IGFBP-3 over immobilized IGF-II. The procedure:
IGF-II was immobilized on a dextran chip for inhibition assays using a BIAcore™ 2000 surface-plasmon-resonance device (BIAcore, Inc., Piscataway, N.J.) to measure free binding protein. IGF-II was biotinylated as described above, and injected over a chip to which streptavidin had been coupled (BIAcore, Inc.) to give approximately 1500 RU of immobilized IGF-II. […] After incubation for ≧1 hour at room temperature, an aliquot of 20 µl was injected at a flow rate of 20 µl/min over the IGF-II chip.

Assay [14] concerns the target T1, IGFBP-1. The experiment in a line: BIAcore competition: peptide inhibits IGFBP-1 binding to IGF-I; the reference itself.
For assay [15], the target named is T1, IGFBP-1. Description: BIAcore competition: peptide inhibits IGFBP-1 binding to IGF-I; position 3 is Ala in the wt.
For assay [16], the target named is T1, IGFBP-1. Description: BIAcore competition: peptide inhibits IGFBP-1 binding to IGF-II; position 3 is Ala in the wt.
For assay [17], the target named is T1, IGFBP-1. Description: biotinylated-IGFBP-1 ELISA: peptide inhibits IGFBP-1 binding to IGF-I; the reference itself.
Text: as §2

The target in assay [18] is T1, IGFBP-1. Description: ELISA plate assay: peptide inhibits IGFBP-1 binding to IGF-I; the reference itself.
For assay [19], the target named is T1, IGFBP-1. Description: ELISA competition: peptide inhibits IGFBP-1 binding to IGF-I; the reference itself.
Assay [20] addresses T1, IGFBP-1. The experiment in a line: BIAcore competition: peptide inhibits IGFBP-1 binding to IGF-II; the reference itself.

Usually IC50 stands for the concentration that inhibits the measured activity by half.

As for SEVGCRAGPLQWLCEKYFSTY-NH2 (disulfide 5-14 (inferred), g3 bp1-01 selectant) [bp1-21A], in the assay with IGFBP-1 [1], the “IC50 (114)/IC50 (mut)” value came out at 3.2 ratio. Moreover, in the assay with IGFBP-1 [2], the “IC50 (116)/IC50 (mut)” value turned out to be 15 ratio.

Consider CRAGPLQWLCEKYFSTY-NH2 (disulfide 1-10 (inferred), g3 bp1-01 selectant) [bp1-21B], for which the “IC50 (114)/IC50 (mut)” value in the assay with IGFBP-1 [1] was 0.67 ratio. The “IC50 (116)/IC50 (mut)” value in the assay with IGFBP-1 [2] came to 3.1 ratio.

As to SEMVCRAGPLQWLCEIYF-NH2 (disulfide 5-14 (inferred), g3 bp1-01 selectant) [bp1-19], in the assay with IGFBP-1 [3], the “IC50 (116)/IC50 (mut)” value was determined as 9.9 ratio. The “IC50 (114)/IC50 (mut)” value in the assay with IGFBP-1 [4] was determined as 2.1 ratio.

On to SEEVCWPVAEWYLCNMWG (disulfide 5-14) [bp3-01-ox], for which, in the assay with IGFBP-3, the “IC50 (mut)/IC50 (wt)” value was found to be 1 ratio.

B1: peptide-phage clone 4D3.9 (g8 display) (peptide, not shown: large carriers)
chain: ETVANCDCYMDLCLCYGSDR
modifications: cysteine pairing not given here; also: C-terminal fusion to linker and M13 g8p, phage-displayed
notes: Tested as a whole phage particle with polyvalent display
Turning to B1, the “percent inhibition of phage binding by IGF-I” value in assay [5] is more than 40%.

As for CRAGPLQWLCEKYF-NH2 (disulfide 1-10 (inferred), bp1-01 lacking the C-terminal Gly) [bp1-16], the “IC50 (114)/IC50 (mut)” value in the assay with IGFBP-1 [1] stood at 0.21 ratio. Moreover, the “IC50 (116)/IC50 (mut)” value with IGFBP-1 [6] stood at 1 ratio.

For the molecule CRKGPLQWLCELYF (g8 bp1-01 selectant) [bp1-10], the “IC50 (mut)/IC50 (wt)” value with IGFBP-1 [7] worked out at 1.1 ratio.

In the case of CRKGPLQWLCEKYF (g8 bp1-01 selectant) [bp1-11], the “IC50 (mut)/IC50 (wt)” value with IGFBP-1 [7] was 1.9 ratio.

In the case of SEEVCWPVAEWYLCN (disulfide 5-14) [BP15], in [8], the “IC50, KIRA assay (peptide with IGFBP-3:IGF-1 at a 3:1 ratio)” value came out at 95000 nM.

For CKEGPLQWLCEKYF (g8 bp1-01 selectant) [bp1-12], the “IC50 (mut)/IC50 (wt)” value with IGFBP-1 [7] came to 2.9 ratio.

Regarding CKEGPLLWLCEKYF (g8 bp1-01 selectant) [bp1-13], the “IC50 (mut)/IC50 (wt)” value with IGFBP-1 [7] was found to be 2.5 ratio.

B2: peptide-phage clone HL-1 (g8 display) (peptide, not shown: large carriers)
chain: SEVGCRAGPLQWLCEKYF
modifications: not fully specified (C-terminus, bridges); cysteine pairing not given here; also: polyvalent display on phage particle
notes: Tested as a whole phage particle with polyvalent display; also called g8-phage peptide bp1-01
Regarding B2, the binding result in assay [9] is “binds”.

Take CRAGPLQWLCEKAA [bp1-18]: the “IC50 (mut)/IC50 (wt)” value in the assay with IGFBP-1 [10] was determined as 148 ratio.

On to EARVCRAGPLQWLCEKYF-NH2 (disulfide 5-14 (inferred), g3 bp1-01 selectant) [bp1-20], for which the “IC50 (114)/IC50 (mut)” value in the assay with IGFBP-1 [1] stood at 2.6 ratio. Besides, the “IC50 (116)/IC50 (mut)” value in the assay with IGFBP-1 [2] is 12 ratio.

B3: bp1-01 (peptide)
peptide: CRAGPLQWLCEKYFG-NH2
modifications: disulfide 1-10; N-terminus assumed
SMILES: CC(C)C[C@@H]1NC(=O)[C@H](Cc2c[nH]c3ccccc23)NC(=O)[C@H](CCC(N)=O)NC(=O)[C@H](CC(C)C)NC(=O)[C@@H]2CCCN2C(=O)CNC(=O)[C@H](C)NC(=O)[C@H](CCCNC(=N)N)NC(=O)[C@@H](N)CSSC[C@@H](C(=O)N[C@@H](CCC(=O)O)C(=O)N[C@@H](CCCCN)C(=O)N[C@@H](Cc2ccc(O)cc2)C(=O)N[C@@H](Cc2ccccc2)C(=O)NCC(N)=O)NC1=O
notes: also called bp1-01 (bp3)
As for B3, in [11], the IC50 was 180 nM. The “IC50, KIRA assay (peptide plus IGF-I plus IGFBP-1)” value in assay [12] amounted to 397 nM.

B4: BP3-4D3.11 (peptide)
peptide: VAWEVCWDRHDQGYICTTDS
modifications: disulfide 6-16
notes: Synthetic peptide corresponding to phage clone 4D3.11 (g8) and 3Bi.1 (g3); also called BP14; BP3-4D3.11 (BP14)
As for B4, the IC50 in [13] was 1000 nM.

B5: bp1-01 (peptide)
peptide: CRAGPLQWLCEKYFG-NH2
modifications: disulfide 1-10; N-terminus assumed
SMILES: CC(C)C[C@@H]1NC(=O)[C@H](Cc2c[nH]c3ccccc23)NC(=O)[C@H](CCC(N)=O)NC(=O)[C@H](CC(C)C)NC(=O)[C@@H]2CCCN2C(=O)CNC(=O)[C@H](C)NC(=O)[C@H](CCCNC(=N)N)NC(=O)[C@@H](N)CSSC[C@@H](C(=O)N[C@@H](CCC(=O)O)C(=O)N[C@@H](CCCCN)C(=O)N[C@@H](Cc2ccc(O)cc2)C(=O)N[C@@H](Cc2ccccc2)C(=O)NCC(N)=O)NC1=O
notes: Synthetic 15-mer; also called (wt); A3
In the case of B5, the “IC50 (mut)/IC50 (wt)” value with IGFBP-1 [14], in the assay with IGFBP-1 [15], with IGFBP-1 [16], with IGFBP-1 [17], in the assay with IGFBP-1 [18] and with IGFBP-1 [19] was 1 ratio each time. Besides, the “IC50 (mut)/IC50 (wt)” value with IGFBP-1 [20] was 1 ratio.

B6: bp1-02 (peptide)
peptide: SEVGCRAGPLQWLCEKYFG-NH2
modifications: disulfide 5-14; N-terminus assumed
SMILES: CC(C)C[C@@H]1NC(=O)[C@H](Cc2c[nH]c3ccccc23)NC(=O)[C@H](CCC(N)=O)NC(=O)[C@H](CC(C)C)NC(=O)[C@@H]2CCCN2C(=O)CNC(=O)[C@H](C)NC(=O)[C@H](CCCNC(=N)N)NC(=O)[C@@H](NC(=O)CNC(=O)[C@@H](NC(=O)[C@H](CCC(=O)O)NC(=O)[C@@H](N)CO)C(C)C)CSSC[C@@H](C(=O)N[C@@H](CCC(=O)O)C(=O)N[C@@H](CCCCN)C(=O)N[C@@H](Cc2ccc(O)cc2)C(=O)N[C@@H](Cc2ccccc2)C(=O)NCC(N)=O)NC1=O
notes: 19-mer variant of bp1-01; also called bp1-02 (bp3)
With B6, in assay [11], the IC50 came out at 50 nM. The “IC50, KIRA assay (peptide plus IGF-I plus IGFBP-1)” value in [12] turned out to be 187 nM.

B7: peptide-phage clone 4D3.12 (g8 display) (peptide, not shown: large carriers)
chain: AEWAECWIAGDQLLCVGKDN
modifications: not fully specified (C-terminus, bridges); cysteine pairing not given here; also: polyvalent display on phage particle
notes: as for B1
For B7, the “percent inhibition of phage binding by IGF-I” value in assay [5] was more than 40%.
